Assay results as given in paper PMC3230568 (2011).

Target: p53 DBD 94-288 (Homo sapiens, UniProt P04637)
Test: atomic force spectroscopy

Chain of p53 DBD 94-288 (P04637 94-288): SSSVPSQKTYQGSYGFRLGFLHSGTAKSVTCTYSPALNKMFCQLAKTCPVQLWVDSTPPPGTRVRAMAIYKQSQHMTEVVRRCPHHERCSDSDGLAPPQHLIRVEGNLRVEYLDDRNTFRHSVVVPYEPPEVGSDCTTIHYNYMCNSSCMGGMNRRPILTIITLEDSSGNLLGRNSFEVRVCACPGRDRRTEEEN

B1: p28 (azurin fragment, Cys-p28) 50-77 (peptide)
chain: TVNLSHPGNLPKNVMGHNWVLSTAADMQ
With B1 the Kd was 630 nM.
